This is an account of results in IntAct's records for PubMed 23969831.

Sequences and labels used below:
B1: Protrudin (Homo sapiens), Q5T4F4 (parent)
chain: MQTSEREGSGPELSPSVMPEAPLESPPFPTKSPAFDLFNLVLSYKRLEIYLEPLKDAGDGVRYLLRWQMPLCSLLTCLGLNVLFLTLNEGAWYSVGALMISVPALLGYLQEVCRARLPDSELMRRKYHSVRQEDLQRGRLSRPEAVAEVKSFLIQLEAFLSRLCCTCEAAYRVLHWENPVVSSQFYGALLGTVCMLYLLPLCWVLTLLNSTLFLGNVEFFRVVSEYRASLQQRMNPKQEEHAFESPPPPDVGGKDGLMDSTPALTPTEDLTPGSVEEAEEAEPDEEFKDAIEETHLVVLEDDEGAPCPAEDELALQDNGFLSKNEVLRSKVSRLTERLRKRYPTNNFGNCTGCSATFSVLKKRRSCSNCGNSFCSRCCSFKVPKSSMGATAPEAQRETVFVCASCNQTLSK
B2: Atlastin-1 (Homo sapiens), Q8WXF7 (parent)
chain: MAKNRRDRNSWGGFSEKTYEWSSEEEEPVKKAGPVQVLIVKDDHSFELDETALNRILLSEAVRDKEVVAVSVAGAFRKGKSFLMDFMLRYMYNQESVDWVGDYNEPLTGFSWRGGSERETTGIQIWSEIFLINKPDGKKVAVLLMDTQGTFDSQSTLRDSATVFALSTMISSIQVYNLSQNVQEDDLQHLQLFTEYGRLAMEETFLKPFQSLIFLVRDWSFPYEFSYGADGGAKFLEKRLKVSGNQHEELQNVRKHIHSCFTNISCFLLPHPGLKVATNPNFDGKLKEIDDEFIKNLKILIPWLLSPESLDIKEINGNKITCRGLVEYFKAYIKIYQGEELPHPKSMLQATAEANNLAAVATAKDTYNKKMEEICGGDKPFLAPNDLQTKHLQLKEESVKLFRGVKKMGGEEFSRRYLQQLESEIDELYIQYIKHNDSKNIFHAARTPATLFVVIFITYVIAGVTGFIGLDIIASLCNMIMGLTLITLCTWAYIRYSGEYRELGAVIDQVAAALWDQGSTNEALYKLYSAAATHRHLYHQAFPTPKSESTEQSEKKKM
partner: B1 chain
B3: Protrudin (Homo sapiens), Q5T4F4 (parent)
chain: B1 chain
partner: B2 chain

In the first assay the parent is B1. Conditions: with reep5_human REEP5, Q00765.
Chain of reep5_human REEP5, Q00765 (Q00765 whole entry): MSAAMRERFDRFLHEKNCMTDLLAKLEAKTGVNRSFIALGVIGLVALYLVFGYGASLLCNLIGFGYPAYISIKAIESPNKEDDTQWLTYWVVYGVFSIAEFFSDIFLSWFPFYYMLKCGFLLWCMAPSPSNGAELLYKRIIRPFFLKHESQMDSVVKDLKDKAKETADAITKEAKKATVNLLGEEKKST
Regarding MQTSEREGSGPELSPSVMPEAPLESPPFPTKSPAFDLFNLVLSYKRLEIYLEPLKDAGDGVRYLLRWQMPLCSLLTCLGLNVLFLTLNEGAWYSVGALMISVPALLGYLQEVCRARLPDSELMRRKYHSVRQEDLQRGRLSRPEAVAEVKSFLIQLEAFLSRLCCTCEAAYRVLHWENPVVSSQFYGALLGTVCMLYLLALCWVLTLLNSTLFLGNVEFFRVVSEYRASLQQRMNPKQEEHAFESPPPPDVGGKDGLMDSTPALTPTEDLTPGSVEEAEEAEPDEEFKDAIEETHLVVLEDDEGAPCPAEDELALQDNGFLSKNEVLRSKVSRLTERLRKRYPTNNFGNCTGCSATFSVLKKRRSCSNCGNSFCSRCCSFKVPKSSMGATAPEAQRETVFVCASCNQTLSK [P200A], the “effect of a mutation on the interaction” value is reported as “decreasing interaction strength”.

On to MQTSEREGSGPELSPSVMPEAPLESPPFPTKSPAFDLFNLVLSYKRLEIYLEPLKDAGDGVRYLLRWQMPLCSLLTCLGLNVLFLTLNEGAWYSVGALMISVPALLGYLQEVCRARLPDSELMRRKYHSVRQEDLQRGRLSRPEAVAEVKSFLIQLEAFLSRLCCTCEAAYRVLHWENPVVSSQFYGALLVTVCMLYLLPLCWVLTLLNSTLFLGNVEFFRVVSEYRASLQQRMNPKQEEHAFESPPPPDVGGKDGLMDSTPALTPTEDLTPGSVEEAEEAEPDEEFKDAIEETHLVVLEDDEGAPCPAEDELALQDNGFLSKNEVLRSKVSRLTERLRKRYPTNNFGNCTGCSATFSVLKKRRSCSNCGNSFCSRCCSFKVPKSSMGATAPEAQRETVFVCASCNQTLSK [G191V], for which the “effect of a mutation on the interaction” value is “with no effect”.

Variants of B2 are the subject of the next assay. Conditions: with zfy27_human ZFYVE27, Q5T4F4.
As for MAKNRRDRNSWGGFSEKTYEWSSEEEEPVKKAGPVQVLIVKDDHSFELDETALNRILLSEAVRDKEVVAVSVAGAFRKGKSFLMDFMLRYMYNQESVDWVGDYNEPLTGFSWRGGSERETTGIQIWSEIFLINKPDGKKVAVLLMDTQGTFDSQSTLRDSATVFALSTMISSIQVYNLSQNVQEDDLQHLQLFTEYGRLAMEETFLKPFQSLIFLVRDWSFPYEFSYGADGGAKFLEKRLKVSGNQHEELQNVRKHIHSCFTNISCFLLPHPGLKVATNPNFDGKLKEIDDEFIKNLKILIPWLLSPESLDIKEINGNKITCRGLVEYFKAYIKIYQGEELPHPKSMLQATAEANNLAAVATAKDTYNKKMEEICGGDKPFLAPNDLQTKHLQLKEESVKLFRGVKKMGGEEFSRRYLQQLESEIDELYIQYIKHNDSKNIFHAARTPATLFVVIFITYVIAGVTGFIGLDIIASLCNMIMGLTLITLCTWAYIWYSGEYRELGAVIDQVAAALWDQGSTNEALYKLYSAAATHRHLYHQAFPTPKSESTEQSEKKKM [R495W], the “effect of a mutation on the interaction” value is “with no effect”.

In the case of MAKNRRDRNSWGGFSEKTYEWSSEEEEPVKKAGPVQVLIVKDDHSFELDETALNRILLSEAVRDKEVVAVSVAGAFRKGKSFLMDFMLRYMYNQESVDWVGDYNEPLTGFSWRGGSERETTGIQIWSEIFLINKPDGKKVAVLLMDTQGTFDSQSTLRDSATVFALSTMISSIQVYNLSQNVQEDDLQHLQLFTEYGRLAMEETFLKPFQSLIFLVRDWSFPYEFSYGADGGAKFLEKRLKVSGNQHEELQNVRKHIHSCFTNISCFLLPHPGLKVATNPNFDGKLKEIDDEFIKNLKILIPWLLSPESLDIKEINGNKITCRGLVEYFKAYIKIYQGEELPHPKSMLQATAEANNLAAVATAKDTYNKKMEEICGGDKPFLAPNDLQTKHLQLKEESVKLFRGVKKMGGEEFSRRYLQQLESEIDELYIQYIKHNDSKNIFHAARTPATLFVVIFITYVIAGVTGFIALDIIASLCNMIMGLTLITLCTWAYIRYSGEYRELGAVIDQVAAALWDQGSTNEALYKLYSAAATHRHLYHQAFPTPKSESTEQSEKKKM [G469A], the “effect of a mutation on the interaction” value is reported as “with no effect”.

As for MAKNRRDRNSWGGFSEKTYEWSSEEEEPVKKAGPVQVLIVKDDHSFELDETALNRILLSEAVRDKEVVAVSVAGAFRKGASFLMDFMLRYMYNQESVDWVGDYNEPLTGFSWRGGSERETTGIQIWSEIFLINKPDGKKVAVLLMDTQGTFDSQSTLRDSATVFALSTMISSIQVYNLSQNVQEDDLQHLQLFTEYGRLAMEETFLKPFQSLIFLVRDWSFPYEFSYGADGGAKFLEKRLKVSGNQHEELQNVRKHIHSCFTNISCFLLPHPGLKVATNPNFDGKLKEIDDEFIKNLKILIPWLLSPESLDIKEINGNKITCRGLVEYFKAYIKIYQGEELPHPKSMLQATAEANNLAAVATAKDTYNKKMEEICGGDKPFLAPNDLQTKHLQLKEESVKLFRGVKKMGGEEFSRRYLQQLESEIDELYIQYIKHNDSKNIFHAARTPATLFVVIFITYVIAGVTGFIGLDIIASLCNMIMGLTLITLCTWAYIRYSGEYRELGAVIDQVAAALWDQGSTNEALYKLYSAAATHRHLYHQAFPTPKSESTEQSEKKKM [K80A], the “effect of a mutation on the interaction” value is “with no effect”.

In the case of MAKNRRDRNSWGGFSEKTYEWSSEEEEPVKKAGPVQVLIVKDDHSFELDETALNRILLSEAVRDKEVVAVSVAGAFRKGKSFLMDFMLRYMYNQESVDWVGDYNEPLTGFSWRGGSERETTGIQIWSEIFLINKPDGKKVAVLLMDTQGTFDSQSTLRDSATVFALSTMISSIQVYNLSQNVQEDDLQHLQLFTEYGRLAMEETFLKPFQSLIFLVRDWSFPYEFSYGADGGAKFLEKRLKVSGNQHEELQNVRKHIHSCFTNISCFLLPHPGLKVATNPNFDGKLKEIDDEFIKNLKILIPWLLSPESLDIKEINGNKITCRGLVEYFKAYIKIYQGEELPHPKSMLQATAEANNLAAVATAKDTYNKKMEEICGGDKPFLAPNDLQTKHLQLKEESVKLFRGVKKMGGEEFSRRYLQQLESEIDELYIQYIKHNDSKNIFHAARTPATLFVVIFITYVIAGVTGFIGLDIIASLCNMIMGLTLITLCTWAYIRYSGEYRELGAVIDQVAAALWDQGATNEALYKLYSAAATHRHLYHQAFPTPKSESTEQSEKKKM [S519A], the “effect of a mutation on the interaction” value was “with no effect”.

Another assay covers variants of B3. Conditions: with atla1_human ATL1, Q8WXF7.
Take MQTSEREGSGPELSPSVMPEAPLESPPFPTKSPAFDLFNLVLSYKRLEIYLEPLKDAGDGVRYLLRWQMPLCSLLTCLGLNVLFLTLNEGAWYSVGALMISVPALLGYLQEVCRARLPDSELMRRKYHSVRQEDLQRGRLSRPEAVAEVKSFLIQLEAFLSRLCCTCEAAYRVLHWENPVVSSQFYGALLVTVCMLYLLPLCWVLTLLNSTLFLGNVEFFRVVSEYRASLQQRMNPKQEEHAFESPPPPDVGGKDGLMDSTPALTPTEDLTPGSVEEAEEAEPDEEFKDAIEETHLVVLEDDEGAPCPAEDELALQDNGFLSKNEVLRSKVSRLTERLRKRYPTNNFGNCTGCSATFSVLKKRRSCSNCGNSFCSRCCSFKVPKSSMGATAPEAQRETVFVCASCNQTLSK [G191V]: the “effect of a mutation on the interaction” value is given as “with no effect”.
